Source: patent US20150344937A1

Target: murine CD4 (murine) (UniProt P06332)
Assay: quantitative flow cytometry on murine splenocytes, BD QuantiBrite PE microspheres as standard

UniProt P06332, sequence (P06332 27-457): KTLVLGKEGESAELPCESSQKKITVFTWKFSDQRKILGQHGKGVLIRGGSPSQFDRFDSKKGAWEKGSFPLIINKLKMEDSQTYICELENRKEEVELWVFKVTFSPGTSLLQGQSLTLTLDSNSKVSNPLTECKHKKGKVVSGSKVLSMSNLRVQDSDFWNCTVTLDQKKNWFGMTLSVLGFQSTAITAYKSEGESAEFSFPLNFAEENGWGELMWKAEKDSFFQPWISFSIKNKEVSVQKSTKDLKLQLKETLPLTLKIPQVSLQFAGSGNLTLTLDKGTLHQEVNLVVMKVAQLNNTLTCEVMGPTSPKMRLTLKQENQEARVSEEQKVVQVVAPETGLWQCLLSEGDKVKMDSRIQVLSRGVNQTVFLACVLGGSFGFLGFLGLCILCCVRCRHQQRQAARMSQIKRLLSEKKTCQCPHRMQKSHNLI

An Antibody Binding per Cell (ABC) (CD4 antibody per cell) of 29700 was found for “Commercially prepared anti-CD4 (clone GK1.5, phycoerythrin conjugate) (antibody)” in this work.
